Measurements taken from article PMC4420250.

Molecular target: autoinducing peptide 1 (AIP1), active (cyclized), N-terminally biotinylated (Staphylococcus aureus)

Row | Substance | IC50 of inhibition of agr::P3-yfp promoter activation in S. aureus AH1677 (agr-I) cultured with 50 nM exogenous AIP1 and increasing concentrations of lipoprotein [nM]
1 | apoB48-containing lipoprotein particles (apoB48-LP) from serum of ApoE-/- mice (natural protein) | 3.5
2 | human LDL (apoB100) (natural protein) | 2.3
